From PMC4336473, “Role of L-alanine for redox self-sufficient amination of alcohols” (Microbial Cell Factories, 2015) come the findings set out here.

Substrate in data set [1]: C[C@H](N)C(=O)O
In words: HPLC of hexylamine formation, crude extract. Format: biochemical, Vibrio fluvialis. To be noted: 10 mM hexanal as acceptor, potassium phosphate pH 7.4 (50 mM in results, 100 mM in methods), 37°C. From the text: HPLC of hexylamine formation, crude extract on TaVf (transaminase from Vibrio fluvialis)

Substrate in data set [2]: C[C@H](N)C(=O)O
The data set can be described thus: HPLC of hexylamine formation, crude extract. Format: biochemical, Chromobacterium violaceum. As to conditions: 10 mM hexanal as acceptor, potassium phosphate pH 7.4 (50 mM in results, 100 mM in methods), 37°C. The source says: HPLC of hexylamine formation, crude extract on TaCv (transaminase from Chromobacterium violaceum)

B1: TaVf (transaminase from Vibrio fluvialis) (Vibrio fluvialis) (protein)
chain: MNKPQSWEARAETYSLYGFTDMPSLHQRGTVVVTHGEGPYIVDVNGRRYLDANSGLWNMVAGFDHKGLIDAAKAQYERFPGYHAFFGRMSDQTVMLSEKLVEVSPFDSGRVFYTNSGSEANDTMVKMLWFLHAAEGKPQKRKILTRWNAYHGVTAVSASMTGKPYNSVFGLPLPGFVHLTCPHYWRYGEEGETEEQFVARLARELEETIQREGADTIAGFFAEPVMGAGGVIPPAKGYFQAILPILRKYDIPVISDEVICGFGRTGNTWGCVTYDFTPDAIISSKNLTAGFFPMGAVILGPELSKRLETAIEAIEEFPHGFTASGHPVGCAIALKAIDVVMNEGLAENVRRLAPRFEERLKHIAERPNIGEYRGIGFMWALEAVKDKASKTPFDGNLSVSERIANTCTDLGLICRPLGQSVVLCPPFILTEAQMDEMFDKLEKALDKVFAEVA
notes: full length, untagged by primers (pTrc99A-taVf), E. coli W3110 crude extract
The term Km denotes the concentration of substrate that gives half-maximal velocity. One may read the Vmax as the rate approached at saturating substrate. For B1, in data set [1], the Km turned out to be 20.00 ± 1.10 mM and the Vmax was 0.3 µmol/min/mg.

B2: TaCv (transaminase from Chromobacterium violaceum) (Chromobacterium violaceum ATCC 12472) (protein)
chain: MQKQRTTSQWRELDAAHHLHPFTDTASLNQAGARVMTRGEGVYLWDSEGNKIIDGMAGLWCVNVGYGRKDFAEAARRQMEELPFYNTFFKTTHPAVVELSSLLAEVTPAGFDRVFYTNSGSESVDTMIRMVRRYWDVQGKPEKKTLIGRWNGYHGSTIGGASLGGMKYMHEQGDLPIPGMAHIEQPWWYKHGKDMTPDEFGVVAARWLEEKILEIGADKVAAFVGEPIQGAGGVIVPPATYWPEIERICRKYDVLLVADEVICGFGRTGEWFGHQHFGFQPDLFTAAKGLSSGYLPIGAVFVGKRVAEGLIAGGDFNHGFTYSGHPVCAAVAHANVAALRDEGIVQRVKDDIGPYMQKRWRETFSRFEHVDDVRGVGMVQAFTLVKNKAKRELFPDFGEIGTLCRDIFFRNNLIMRACGDHIVSAPPLVMTRAEVDEMLAVAERCLEEFEQTLKARGLA
notes: full length, codon-optimized, untagged by primers (pTrc99A-taCv), E. coli W3110 crude extract
Regarding B2, in data set [2], the Km came to 35.00 ± 2.20 mM and the Vmax stood at 2 µmol/min/mg.
